Results on 40 sequences are retold here after the nanobody polyreactivity screen of Harvey et al. (2022).

The nature of this data set: yeast display, Sf9 membrane polyspecificity reagent, FACS + sequencing; frameworks hold sequencing errors. Summed up:
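After 36–48 hours of galactose induction, yeast (Saccharomyces cerevisiae BJ5465) displaying a synthetic nanobody library were stained at 4 °C for 1 hour with 10% biotinylated, detergent-solubilized Sf9 membrane reagent. Streptavidin microbeads enriched the stained cells before FACS sorting into low and high (top ~1%) gates on anti-HA and streptavidin fluorescence. Each clone's polyreactivity label reflects its gate of origin.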
Turning to “QVQLVESGGGLVQAGGSLRLSCAASGRTFTTNTMGWYRQAPGKERELVAGIRWSGSRTYYADSVKGRFTISRDNAKITVFLQMNSLKPEDSAVYYCAVGRRSDAPLYVYRFDYWGQGTQVTVSS”, the “polyreactivity (PSR sort gate)” value is recorded as “low polyreactivity”.
The entry for “QVKLVESGGALVQAGGSLRLSCAASGSTFGWYAMGRYRQAPGKERELVAGISSGGASTYYADSVKGRFTISRDNAKNTFYLQMNSLKPEDSAVYYCAKDQIFRGYKTKFGYWGQGTQLTVSS” is “low polyreactivity”; for “QVQLVESGGGLVQAGGSLRLSCAASGFIFRRNAMGRYRQAPGKERELVAAITSRGGSTYYADSVKGRFTISRDNAKHTVYLQMNSLKPEDTAVYYCAAKFPSRFYSFVQYYYWGQVTQVTVSS” it is “high polyreactivity”; for “QVQHVESGGGLVQAGGSLRLSCAASGRTFGWYTMGWYRQAPGKEREFVAAISSSDTSTYYADSVKGRFTISRDNAKNTVYLQMNSLKPEDTAVYYCAADPPSWQWFVGYSYDYWGQGTQVTVSS” it is “low polyreactivity”.
The entry for “QVQLVESGGGLVQAGGSLRLSCAASGRIFNLYAMGWYRQAPGKERELVAAISWGGGRTYYADSVKGRFTISRDNAKNTVYLQMNSLKPEDTAVYYCNAVYSPRYYVGGYDYWGQGTQVTVSS” is “high polyreactivity”; for “QVQLVESGGGLVQAGGSLRLSCAASGSTFKRNAMGWYRQAPGKDRELVAAISFRGGSTYYADSVKGRFTISRDNAKNTVYLQMNSLKPEDTAVYYCAAGIYRIRGGGISFDYWGQGTQVTVSS” it is “high polyreactivity”; for “QVQLVESGGGLVQAGGSLRLSCAASGSTFNAYAMGWYRQAPGKERELVAAITDGDSTNYADSVKGRSTISRDNAKNTVYLQMNSLKPEDTAVYYCAKDSSVGDGDDGWVWFDLYYWGQGTQVTVSS” it is “low polyreactivity”.
Take “QVQLVESGGGLVQAGGSLRLSCAASGYTFDPYDMGRYRQAPGKERELVASISWSGGDTYYADSVKGRFTISRDNAKNTVYLQMNSLKPEDTAVYYCAADRYIPRSIIMDYWGQGTQVTVSS”: the “polyreactivity (PSR sort gate)” value is recorded as “low polyreactivity”.
The result for “QVQLVESGGGLVQAGRSLRLSCAASGSIFSRNAMGWYRQAPGKERELVAAITGSASSTYYADSVKGRFTISRDNAKNTVYLQMNSLKPEDTAVYYCNAARVYLSECGQGTQVTVSS” reads “high polyreactivity”; that for “QVQLVESGGGLVQAGGSLRLSCAASGRTFEPNDMGWYRQAPGKERELVAAISSSDGSTYYADSVKGRFTISRDNAKNTVYLQMNSLKPEDTALYYCAADAGYLYDWPYNYYYWGQGTQVTVSS”, “low polyreactivity”; that for “QVQLVESWGGLVQSGGSLRLISAASGRTYYYYVMGCYRQAPGKERDLVATINSGASTYYADSVKGRFTISRDNAKNTVYLQMNSLNPEDTAVYYCAACVLRRIAGVRYRYGFWGQGTQVTVSS”, “high polyreactivity”.
The entry for “HVQLVESAGGLVQAGGSLSLSCAASGSTFKLYAMGRYRQAPGKESEFVAGISWRGGSTYYADSVKGRFTISRDNAKNTVYFQMNSLKPEDTAVYYCAARSFSNIGYHGYGYWGQGTQVTVSS” is “high polyreactivity”.
The result for “QVQLVESGGGLVHAGGSLRLSCAASGITSSQNAMGWYRQAPGKERELVAAISWRGGSTYYADSVKGRFTISRDNAKNNVYLQMNSLKAEDTAVYYCNVVKRSLRYDYWGQCTQVTVSS” reads “high polyreactivity”; that for “QVQLVESGGGLVQAGRSLRLSCAASGITLVRNAMGWSRQAPGKEMELVAAISSNGDNTYYADSVKGRFTISSDNAKNTVYLQMNSLKPEDTAVYYCAVGGPVIWWGPKYDYWGQGTQVTVSS”, “high polyreactivity”.
As to “QVQLVESGGGLVQAGCSLRLSCAASGSIFYYYAMGWYRQAPGKERELVAAIRRSGSTTYADSVKGRFTISRDNAKNTVYLQMNSLKPEETAVYYCNVYGYGTEYDYWGQGTLVTVSS”, the “polyreactivity (PSR sort gate)” value is “high polyreactivity”.
Take “QDQLVESGGGLVQAGGSLRVSCAASGSIFAWYAMGWYRQAPGKDRELVAVITRGGSTNYADSVKGRFTISRDNAKKTVYLQMNSLKPEDTAVYYCAAGSYYSWYPFDYWGQGTQVTVSS”: the “polyreactivity (PSR sort gate)” value is “low polyreactivity”.
The result for “QVHLVDSGGGLVQAGGSLRLSCAASGFIFWSYAMGWYRQAPGKERELVAAISFRGGSTFYADSVKGRFTISRDNAKNTVYLQMNSLKPEDTAVYYCAVGVYPSYRGPTFSTRRDYWGQGTQVTVSS” reads “low polyreactivity”; that for “QVQLVESGGGLVQAGGSLRLSCAASGFIFYRNTMGWYRQAPGKEREFVAAIRWRGGSTYYADPVKGRFTISRDNAKNTVYLQMNSLKPEDTAVYYCAADTRPGYSGFEYWGQGTQVTVSS”, “high polyreactivity”.
The result for “QVQLVESGGGLVQAGGSLRLSCAASGSTFGPYTMGWYRQAPGKERELVAAISYSGASTYYADSVKGRFTISRDNAMNTVYLQMNSLKPEDTAVYYCNTVYRYTRARYPYDYWGQGTQVTVSS” reads “high polyreactivity”; that for “QVQLVESGGGLVQAGGSLRLRWAASGRIFHHYAMGWYRPAPGKERELVAAISSGGSTYYADSVKGRFTISRDNAKNTVYLQMNSLKPEVTAVYYCAAYWYSPEYDYWGQGTQVTLSS”, “high polyreactivity”.
The result for “QVQLVESGGGIVQAGGSLRLSCAASGLTFQVNAMGWYRQAPGKERELVAGITFSGGSTYYADSVKGRFTISRDNAKNTVYLQMNSLKPEDTAVYYCAADARFYAYYYWGQGTQVTVSS” reads “low polyreactivity”; that for “QVQLVESGGGLVQAGGSLRLSCAASGRIFDIYAMGWYRQAPGKERELVATITRSAGRTYYADSVKGRFTISRDNAKNTVYLQMNSLKPEDTAVYFCAASYWDTEPGYREYEYWGQGTQVTVSS”, “low polyreactivity”; that for “QVQLVESGGGLVQAGGSLRLSCAASGSIFYGYAMGWYRQAPGTERELVAALSWSDGITYYADSVKGRFTISRDNGKNTGYLQMKNLKPEDTAVYSCAAEYGQYGYDYWGKGTQVTVSS”, “high polyreactivity”.
For “QVQLVESGGGLVQAGGSLRLSCAASGITFDLYAMGWYRQAPGKEREFVATISWTGGTTYYADSVKGRFTISRDNAKNTVYLQMNSLKPEDTAVYYCNKGSDFFWYDYDYWGQGTQVTVSS”, the “polyreactivity (PSR sort gate)” value is given as “low polyreactivity”.
The entry for “QVQLVESGGGLVQAGGSLRLSCASSGSTLYDNAKGWYRPAPGKERELVAAISKSGGRTYYADSVKGRFTISRDNAKNSVYLQMNSLKPEDTAVYYCNDVSSGGDYNYWGQGTQVTVSS” is “high polyreactivity”.
The entry for “QVQLVESGGGLVQAGGSLRLSCAASGRTFFLYAMGWYRQAPGKERELVAAITDGGSITYYADSVKGRFTISRDNAKNTVYLQMNSLKPEDTAVYYCAAEYWHVYDGDYWGYDYWGQGTQVTVSS” is “high polyreactivity”.
The entry for “QVQLVESGGGLGQAGGSLRLSCSASGRIFDIYGMGWYRQAPGKERELVAAITSGGDTNYADSVKGRFTISRDNAKNTVYLQMNSLKPEDTAVYYCAARIRDQDRYDYDYWGQGTQVTVSS” is “low polyreactivity”; for “QVQLVESGGGLVHAGGRLRLSCTASGGIFRYYAMGWYRQAPGKERELVAGISRSGGSTHYADSVKGRFTISRDNAKNTVYLQMNSLKPEDTAVYYCAADTYFTKYDYWGQGTQVTVSS” it is “high polyreactivity”; for “QVQLVESGGGLVQAGGSLRLSCAASGRTFRYYAMGWYRQAPGKEREFVAAITKRGGSTYYADSVKGRFTISRDNAKNTVYLQMNSLKAEDTAVYYCAADTSTWAHTRGYDYWGQGTQVTVSS” it is “high polyreactivity”.
In the case of “QVQIVESGGGLLQAGGSLRLSCAASGGTFPVYAMVWYRQAPGKERELVAAISYSGVTTYYADSVKGRFTISRDNAKNTVYLQINSLKPDDTAVFYCNADWRRWYIFSYDYWGQGTQVTVSS”, the “polyreactivity (PSR sort gate)” value is given as “low polyreactivity”.
Consider “QVQLVESGGGLVQAGGSLRLSCAASGGTFPQNLMGWYRQAPGQERELVAAISSGGSTYYADSGKGRFTISRDNAKNSVYLQMNSLKPEDTAVYYCAKRRWYRYDYWGQGTQVTVSS”, for which the “polyreactivity (PSR sort gate)” value is given as “high polyreactivity”.
The result for “QVQLVDSGGGLVQAGGSLRLSCAASGSIFDANAMGWYRQAPGKERELVAAITFDSGSTHYADSVKGRFTISRDNAQNTVYLQMNSLKPEDTAVYYCAVRDFNSDYDYWGQGTQVTVSS” reads “low polyreactivity”; that for “QVQLVESGGGLVQAGGSLRLSCAASGRTFSIYAMGWYRQAPGKERELVASITNSDGSTYYADSVKGRFTISRDNAKNTVYLQMNSLKPEDTAVYYCNVDSGQSWSLWTYVQYDDYWGQGTQVTVSS”, “low polyreactivity”; that for “QVQLVESGGGLVQAGGSLRLSCAASGSTLSDNAMGWYRQAPGKERELVARISGDGSTNYADSVKGRFTISRDNAKNTVYLQMNSLKPDDTAVYYCNAGTAGIYYYGKSDYWGQGTQVTVSS”, “low polyreactivity”.
The entry for “QVQLVESGGGLVQAGGSLRLSCAASGRIYNRNAMGWYRQAPGKERDLVAAITYRGGSTYYADSVKGRFTISRDNAKNTVCLQMNSLKPEDTAVYYCAKDVKQWSVSASYRFGYWGQGTQVTVSS” is “high polyreactivity”; for “QVQLVESGGGLVQAGGSLRLSCAASGYTYGNYAMGWYRQAPGKERELVAAITSRGGRTYYADSVKGRFTISRDNAKNTVYLQMNSLKPEDTAVYYCAARGRYKDGYRMDYWGQGTQVTVSS” it is “high polyreactivity”.
The entry for “QVQLVESGGGLVQAGGSLRLSCAASGSTFLRFAMGWYRQAPGKERELVARISGGGTTYYADSVKGRFTISRDNAKNTVYLQMNSLKPEDTAVYYCNAFYFYVNQGRYEYGYWGQGTQVTVSS” is “high polyreactivity”; for “QVQLVESGGGLVQAGGSLRLSCAASGIIFLDNAMGWYRQAPGKERELVADITSSGGSTYYADSVKGRFTISRDNAKNTVSLQMNSLKPEDTAVYYCAATRPSYNDAESDYWGQGTQVTVSS” it is “low polyreactivity”; for “QVQLVESGGGLVHAGGSLRLSCAASGFILSANDMGWYRQAPGQERELVADIDSSGRTNYADSVKGRFTISRDNAKNTVYLQMISLKPEDTAVYYCATPPDDKGGGYLGFDYWGQGTQVTVSS” it is “low polyreactivity”.
Regarding “QVQLGESGGGLVQAGGSLRLSCAASGRTFYVYAMGWYRQAPGKERELVASIRRSGGITYYADYVKGRFTISRDNAKNTVYLLMNSLKPEDSAVYYCNARRGPGRREYDYWGQGTQVTVSS”, the “polyreactivity (PSR sort gate)” value is “high polyreactivity”.
